Data: patent US20240317847A1 (Bayer, published 2024)

T1: human IL-11 (human, UniProt P20809 22-199)
T1 construct: Invigate recombinant protein; biotinylated when immobilized in the Di-complex ELISA; also called hIL11; hIL-11
T1 sequence: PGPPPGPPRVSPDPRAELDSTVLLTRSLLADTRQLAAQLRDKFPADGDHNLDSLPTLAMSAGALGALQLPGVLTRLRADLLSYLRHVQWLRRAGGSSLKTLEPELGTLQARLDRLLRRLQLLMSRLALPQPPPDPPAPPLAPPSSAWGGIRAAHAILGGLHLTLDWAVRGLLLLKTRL

T2: human IL-11 (Invigate, e.g., lot #C121021-19) (human, UniProt P20809 22-199)
T2 construct: Bought protein; also called hIL-11; hIL11
T2 sequence: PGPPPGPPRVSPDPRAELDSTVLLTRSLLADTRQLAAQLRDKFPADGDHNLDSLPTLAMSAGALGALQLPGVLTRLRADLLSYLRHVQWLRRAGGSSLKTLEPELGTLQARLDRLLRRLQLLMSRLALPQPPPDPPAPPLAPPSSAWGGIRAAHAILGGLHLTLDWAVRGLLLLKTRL


Legend:
human IL-11 = molecular target: T1, human IL-11; assay: Tri-complex ELISA, hIL-11 + mIL-11Ra-Fc + hgp130-Fc, inhibition of complex formation
[1] = molecular target: T2, human IL-11 (Invigate, e.g., lot …); assay: Di-complex ELISA: biotinylated human IL-11 on streptavidin plate, antibody titrated against 2 nM canine IL11RA-human-Fc (competitor)
Method: In the Di-complex ELISA format anti IL-11 antibodies are tested for the ability to interfere with the formation of complexes consisting of immobilized murine IL-11 (Invigate, e.g., lot #C210819-09) or human IL-11 (Invigate, e.g., lot #C121021-19), and murine IL11RA-Fc fusion proteins or canine IL11RA-human-Fc fusion protein (FIG. 17a, b).
The assay is performed using streptavidin coated microtiter plates (Greiner bio-one, #781997). In a first step, 10 nM biotinylated mouse IL-11 (Invigate, Germany, e.g., lot #C210819-09) or human IL-11 (Invigate, Germany, e.g., lot #C121021-19) is coated in 25 μl PBS on the plate at 4° C. overnight. Next day, the plate is washed three times with 50 μl PBST and then blocked with 50 μl SmartBlock (Candor, #113125) for one hour at room temperature (RT). After additional three washes with PBST, 25 μl of a mixture of the murine anti IL-11 antibody and recombinant canine IL11RA-Fc fusion protein (Sino Biological, #70078-D02H) in PBS-T, 10% Smartblock are added simultaneously to the plate and incubated for one hour at RT. […] After three additional washes with PBS-T, 25 μl anti-human-POD (Sigma, #A0170) in PBS-T, 10% Smartblock is added and incubated for 1 hour at RT. After a final three washes with PBS-T, 25 μl AmplexRed (Fisher Scientific, A12222), 1/1000 in PBS, 0,003% H₂O₂, is added as substrate and incubated for 15 min at RT in the dark. Then, the fluorescence is measured with a plate reader at 535/595 nm. Signals from dose responses were used to calculate IC50 values (GraphPad Prism). Efficacy was calculated as [(signal measured at lowest antibody concentration−signal measured at the highest antibody concentration)×100] divided by (signal measured at lowest antibody concentration−signal measured in the absence of IL11Ra).

Row | Binder | Efficacy (%) (human IL-11) | IC50 (human IL-11) [nM] | Efficacy (%) [1] [%] | IC50 [1] [nM]
1 | TPP-29519 (antibody, mouse IgG1, mIgG1, Lambda) heavy: QVQLVESGGGVVQPGRSLRLSCAASGFTFSHYDMHWVRQAPGKGLEWVAVISYHGSVKFYADSVKGRFTISRDNSKNTLYLQMNSLRAEDTAVYYCARTPGFHFDYWGQGTLVTVSSAKTTPPSVYPLAPGSAAQTNSMVTLGCLVKGYFPEPVTVTWNSGSLSSGVHTFPAVLQSDLYTLSSSVTVPSSTWPSETVTCNVAHPASSTKVDKKIVPRDCGCKPCICTVPEVSSVFIFPPKPKDVLTITLTPKVTCVVVDISKDDPEVQFSWFVDDVEVHTAQTQPREEQFNSTFRSVSELPIMHQDWLNGKEFKCRVNSAAFPAPIEKTISKTKGRPKAPQVYTIPPPKEQMAKDKVSLTCMITDFFPEDITVEWQWNGQPAENYKNTQPIMDTDGSYFVYSKLNVQKSNWEAGNTFTCSVLHEGLHNHHTEKSLSHSPGK light: QSVLTQPPSASGTPGQRVTISCSGSSSNIGSNYVSWYQQLPGTAPKLLIYYDDLRPSGVPDRFSGSKSGTSASLAISGLRSEDEADYYCSAWDDSLSGVVFGGGTKLTVLGQPKSSPSVTLFPPSSEELETNKATLVCTITDFYPGVVTVDWKVDGTPVTQGMETTQPSKQSNNKYMASSYLTLTARAWERHSSYSCQVTHEGHTVEKSLSRADCS | 81.3 | 2.4 |  | 
2 | TPP-29528 (antibody, mouse IgG1, mIgG1, Lambda) heavy: EVQLLESGGGLVQPGGSLRLSCAASGFTFSSYGMHWVRQAPGKGLEWVAVISYDGSYKYYADSVKGRFTISRDNSKNTLYLQMNSLRAEDTAVYYCAAGVPDYWGQGTLVTVSSAKTTPPSVYPLAPGSAAQTNSMVTLGCLVKGYFPEPVTVTWNSGSLSSGVHTFPAVLQSDLYTLSSSVTVPSSTWPSETVTCNVAHPASSTKVDKKIVPRDCGCKPCICTVPEVSSVFIFPPKPKDVLTITLTPKVTCVVVDISKDDPEVQFSWFVDDVEVHTAQTQPREEQFNSTFRSVSELPIMHQDWLNGKEFKCRVNSAAFPAPIEKTISKTKGRPKAPQVYTIPPPKEQMAKDKVSLTCMITDFFPEDITVEWQWNGQPAENYKNTQPIMDTDGSYFVYSKLNVQKSNWEAGNTFTCSVLHEGLHNHHTEKSLSHSPGK light: QSVLTQPPSASGTPGQRVTISCSGSSSNIGSDYDVHWYQQLPGTAPKLLIYSNEERPSGVPDRFSGSKSGTSASLAISGLRSEDEADYYCSAWDSSLSGPVFGGGTKLTVLGQPKSSPSVTLFPPSSEELETNKATLVCTITDFYPGVVTVDWKVDGTPVTQGMETTQPSKQSNNKYMASSYLTLTARAWERHSSYSCQVTHEGHTVEKSLSRADCS | 94.7 | 1 |  | 
3 | TPP-18087 (antibody, mouse IgG1, V domains shown, mIgG1, Lambda) VH: EVQLLESGGGLVQPGGSLRLSCAASGFTFSHYDMNWLRQAPGKGLEWVGVISYDGSNKFYADFVKGRFTISRDNSKNTLYLQMNSLRAEDTAVYYCARTPGSHFDYWGQGTLVTVSS VL: QSVLTQPPSASGTPGQRVTISCSGSSSNIGNNAVNWYQQLPGTAPKLLIYYDDLLPSGVPDRFSGSKSGTSASLAISGLRSEDEADYYCSAWDDSLNGVVFGGGTKLTVLG |  |  | 10.7 | 
4 | TPP-19528 (antibody, mouse IgG1, V domains shown, mIgG1, Lambda) VH: EVQLLESGGGLVQPGGSLRLSCAASGFTFSIYAMSWVRQAPGKGLEWVSSISDTGDRTYYADSVKGRFTISRDNSKNTLYLQMNSLRAEDTAVYYCARSNWGSLDYWGQGTLVTVSS VL: QSVLTQPPSASGTPGQRVTISCSGSSSNIGSNYVYWYQQLPGTAPKLLIYYDDLLPSGVPDRFSGSKSGTSASLAISGLRSEDEADYYCAAWDDSLSGRVFGGGTKLTVLG |  |  | 57 | 3
